Drawing on publication PMC8795526, this text covers Kd for one substance.

In the assay the target is human neonatal Fc receptor (hFcRn) (human) (UniProt P55899). As to the kind of experiment: SPR. (In general: Surface plasmon resonance follows binding to a sensor surface in real time, without labels.)

pKd: −log10 of the molar value.

UniProt P55899, sequence (P55899 24-297, chain 1 of 2): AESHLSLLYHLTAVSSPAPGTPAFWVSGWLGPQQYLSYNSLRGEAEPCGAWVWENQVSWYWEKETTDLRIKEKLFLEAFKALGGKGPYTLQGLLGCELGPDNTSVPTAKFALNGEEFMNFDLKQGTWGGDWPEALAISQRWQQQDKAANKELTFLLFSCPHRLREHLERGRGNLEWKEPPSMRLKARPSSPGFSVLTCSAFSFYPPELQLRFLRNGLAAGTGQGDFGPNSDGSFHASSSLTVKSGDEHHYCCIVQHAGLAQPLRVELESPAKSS
UniProt P55899, sequence (P61769 21-119, chain 2 of 2, further chain): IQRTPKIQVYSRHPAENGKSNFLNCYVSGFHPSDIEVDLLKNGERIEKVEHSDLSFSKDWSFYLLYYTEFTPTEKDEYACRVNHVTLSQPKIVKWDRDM

As a reminder, the pKd is −log10 of the Kd, conventionally taken in molar units. 3F6-hIgG1 (antibody) gave a pKd of 6.27.
